Experimental data from patent publication US20240309113A1 (SUZHOU TRANSCENTA THERAPEUTICS, published 2024).

Tests used:
Recombinant Human MASP-1 = molecular target: T1, Recombinant Human MASP-1 (human, UniProt P48740 20-699, limits assumed); experiment: ELISA; plate coated with recombinant human MASP-1, mouse anti-human IgG4 HRP, OD450
T1 construct: Bought protein, construct not described
T1 sequence (looked up): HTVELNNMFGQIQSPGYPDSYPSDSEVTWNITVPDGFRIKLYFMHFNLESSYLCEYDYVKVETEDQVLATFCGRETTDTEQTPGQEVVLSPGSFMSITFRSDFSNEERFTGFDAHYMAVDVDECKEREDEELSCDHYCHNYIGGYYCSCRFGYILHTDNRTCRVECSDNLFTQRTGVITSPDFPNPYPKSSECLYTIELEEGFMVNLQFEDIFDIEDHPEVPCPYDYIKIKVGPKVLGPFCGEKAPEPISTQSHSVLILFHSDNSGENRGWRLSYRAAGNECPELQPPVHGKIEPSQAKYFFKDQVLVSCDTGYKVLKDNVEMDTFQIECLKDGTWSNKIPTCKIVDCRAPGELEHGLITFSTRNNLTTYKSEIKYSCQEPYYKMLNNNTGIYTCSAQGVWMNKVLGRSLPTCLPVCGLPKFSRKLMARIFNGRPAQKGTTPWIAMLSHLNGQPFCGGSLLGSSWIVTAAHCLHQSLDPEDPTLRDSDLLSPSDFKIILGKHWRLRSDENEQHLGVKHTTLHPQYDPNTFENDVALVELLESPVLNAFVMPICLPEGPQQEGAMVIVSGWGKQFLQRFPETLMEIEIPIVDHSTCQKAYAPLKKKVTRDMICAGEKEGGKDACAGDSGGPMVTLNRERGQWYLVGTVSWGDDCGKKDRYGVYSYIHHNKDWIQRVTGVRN

Recombinant Human MASP-3 = molecular target: T2, Recombinant Human MASP-3 (human, UniProt P48740-2 20-728, limits assumed); experiment: ELISA; plate coated with recombinant human MASP-3, mouse anti-human IgG4 HRP, OD450
T2 construct: Bought protein, construct not described
T2 sequence (looked up): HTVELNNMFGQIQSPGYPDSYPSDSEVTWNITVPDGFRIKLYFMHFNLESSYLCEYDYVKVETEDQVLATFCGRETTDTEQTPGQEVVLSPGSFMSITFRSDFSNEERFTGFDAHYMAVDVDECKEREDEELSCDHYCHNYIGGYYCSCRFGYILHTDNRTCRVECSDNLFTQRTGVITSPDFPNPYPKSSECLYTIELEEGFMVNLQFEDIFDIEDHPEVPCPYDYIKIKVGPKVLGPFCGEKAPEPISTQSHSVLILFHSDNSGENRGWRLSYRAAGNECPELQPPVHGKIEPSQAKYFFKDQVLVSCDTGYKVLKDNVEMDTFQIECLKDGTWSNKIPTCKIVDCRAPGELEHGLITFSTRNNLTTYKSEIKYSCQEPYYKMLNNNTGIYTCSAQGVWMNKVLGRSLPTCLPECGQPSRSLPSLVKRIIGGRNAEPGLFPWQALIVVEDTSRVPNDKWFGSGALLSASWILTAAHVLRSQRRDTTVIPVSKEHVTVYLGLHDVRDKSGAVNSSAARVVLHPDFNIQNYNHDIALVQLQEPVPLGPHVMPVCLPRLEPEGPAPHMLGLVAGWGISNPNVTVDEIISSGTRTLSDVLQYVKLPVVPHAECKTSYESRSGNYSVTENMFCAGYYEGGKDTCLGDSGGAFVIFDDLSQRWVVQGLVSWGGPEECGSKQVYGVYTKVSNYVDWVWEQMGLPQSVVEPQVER

[1] = molecular target: T3, Human FcRn (FCGRT&B2M) protein with His tag (human, UniProt P55899 24-297; P61769 21-119); experiment: BLI (ForteBio), His-tagged human FcRn on Ni-NTA biosensor, antibody in solution (500, 167, 56, 19 nM)
T3 construct: Carries a His tag (held on Ni-NTA biosensors)
T3 sequence (P55899 24-297 limits assumed, chain 1 of 2): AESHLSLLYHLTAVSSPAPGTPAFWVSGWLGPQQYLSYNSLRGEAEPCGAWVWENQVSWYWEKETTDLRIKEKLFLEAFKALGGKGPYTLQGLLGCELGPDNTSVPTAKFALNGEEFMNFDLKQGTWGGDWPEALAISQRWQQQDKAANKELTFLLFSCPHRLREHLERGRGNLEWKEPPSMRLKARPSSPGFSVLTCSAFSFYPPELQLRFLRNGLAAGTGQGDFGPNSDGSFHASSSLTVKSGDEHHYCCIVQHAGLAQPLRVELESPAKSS
T3 sequence (P61769 21-119 limits assumed, chain 2 of 2): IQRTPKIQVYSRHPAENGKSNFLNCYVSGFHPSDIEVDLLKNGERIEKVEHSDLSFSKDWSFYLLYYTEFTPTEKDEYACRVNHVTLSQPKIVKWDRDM

[2] = molecular target: T4, human MASP-2 protein (recombinant, full-length, C-terminal tag) (human, UniProt O00187 16-686); experiment: BLI (ForteBio Octet RED96), antibody on Protein A biosensor, human MASP-2 in solution (100, 50, 25 nM)
T4 construct: The protein was secreted and purified on an anti-FLAG or anti-HIS column; also called hMASP-2; Full-length human MASP-2 protein; not shown: C-terminal HIS-tag or FLAG-tag
T4 sequence (O00187 16-686): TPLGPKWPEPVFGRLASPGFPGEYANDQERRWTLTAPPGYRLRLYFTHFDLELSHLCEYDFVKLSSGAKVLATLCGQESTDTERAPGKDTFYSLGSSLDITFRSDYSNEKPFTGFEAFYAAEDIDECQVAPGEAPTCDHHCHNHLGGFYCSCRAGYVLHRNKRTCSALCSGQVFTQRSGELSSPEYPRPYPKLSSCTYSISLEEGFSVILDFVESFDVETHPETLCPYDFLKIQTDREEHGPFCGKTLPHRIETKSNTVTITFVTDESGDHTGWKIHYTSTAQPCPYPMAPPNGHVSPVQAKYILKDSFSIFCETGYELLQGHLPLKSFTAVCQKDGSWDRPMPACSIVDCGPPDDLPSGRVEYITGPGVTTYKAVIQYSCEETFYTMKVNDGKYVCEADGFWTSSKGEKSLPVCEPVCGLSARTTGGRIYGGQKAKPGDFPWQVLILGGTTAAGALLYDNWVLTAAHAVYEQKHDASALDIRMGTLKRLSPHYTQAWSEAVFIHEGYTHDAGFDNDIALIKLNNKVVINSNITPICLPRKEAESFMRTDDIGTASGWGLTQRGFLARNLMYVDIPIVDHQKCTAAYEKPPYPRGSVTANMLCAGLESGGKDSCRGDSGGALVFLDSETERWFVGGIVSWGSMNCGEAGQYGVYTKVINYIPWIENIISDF

[3] = molecular target: T4, human MASP-2 protein (recombinant, …); experiment: ELISA; plate coated with human MASP2 (1 ug/ml), serially diluted antibody, mouse anti-human IgG4 Fc HRP, OD450
Cyno MASP2 = molecular target: T5, Cyno MASP2; experiment: ELISA; plate coated with cynomolgus MASP2 (1 ug/ml), serially diluted antibody, mouse anti-human IgG4 Fc HRP, OD450
T5 construct: Recombinant coated protein; distinct from m29 (native MASP-2 in cynomolgus serum); also called cynomolgus MASP-2 (recombinant, generated in house)
T5 sequence (MASP-2 polypeptide, as listed by the source limits assumed): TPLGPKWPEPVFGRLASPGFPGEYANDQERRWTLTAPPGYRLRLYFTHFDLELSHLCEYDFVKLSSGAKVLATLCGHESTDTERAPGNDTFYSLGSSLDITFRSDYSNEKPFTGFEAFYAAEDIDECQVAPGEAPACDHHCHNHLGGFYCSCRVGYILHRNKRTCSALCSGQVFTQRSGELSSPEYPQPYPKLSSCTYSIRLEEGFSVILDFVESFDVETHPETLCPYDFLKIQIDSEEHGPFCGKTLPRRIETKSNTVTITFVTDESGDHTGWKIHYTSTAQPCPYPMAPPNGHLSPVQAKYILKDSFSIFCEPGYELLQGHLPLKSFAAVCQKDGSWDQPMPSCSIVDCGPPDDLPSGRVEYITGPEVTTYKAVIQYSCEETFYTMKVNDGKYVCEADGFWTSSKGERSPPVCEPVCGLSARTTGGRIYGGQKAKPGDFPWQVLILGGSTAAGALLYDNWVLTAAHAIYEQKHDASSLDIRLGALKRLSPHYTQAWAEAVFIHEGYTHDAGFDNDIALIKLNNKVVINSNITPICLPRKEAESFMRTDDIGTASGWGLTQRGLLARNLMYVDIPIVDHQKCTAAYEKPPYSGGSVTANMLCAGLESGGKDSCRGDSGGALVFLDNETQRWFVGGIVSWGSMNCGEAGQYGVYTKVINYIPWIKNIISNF

[4] = molecular target: T6, Recombinant Human Complement Component C1s (human, UniProt P09871 16-688, limits assumed); experiment: ELISA; plate coated with recombinant human C1s, serially diluted antibody, mouse anti-human IgG4 HRP, OD450 (fit value printed for a flat curve)
T6 construct: Bought protein, construct not described; also called human C1s
T6 sequence (looked up): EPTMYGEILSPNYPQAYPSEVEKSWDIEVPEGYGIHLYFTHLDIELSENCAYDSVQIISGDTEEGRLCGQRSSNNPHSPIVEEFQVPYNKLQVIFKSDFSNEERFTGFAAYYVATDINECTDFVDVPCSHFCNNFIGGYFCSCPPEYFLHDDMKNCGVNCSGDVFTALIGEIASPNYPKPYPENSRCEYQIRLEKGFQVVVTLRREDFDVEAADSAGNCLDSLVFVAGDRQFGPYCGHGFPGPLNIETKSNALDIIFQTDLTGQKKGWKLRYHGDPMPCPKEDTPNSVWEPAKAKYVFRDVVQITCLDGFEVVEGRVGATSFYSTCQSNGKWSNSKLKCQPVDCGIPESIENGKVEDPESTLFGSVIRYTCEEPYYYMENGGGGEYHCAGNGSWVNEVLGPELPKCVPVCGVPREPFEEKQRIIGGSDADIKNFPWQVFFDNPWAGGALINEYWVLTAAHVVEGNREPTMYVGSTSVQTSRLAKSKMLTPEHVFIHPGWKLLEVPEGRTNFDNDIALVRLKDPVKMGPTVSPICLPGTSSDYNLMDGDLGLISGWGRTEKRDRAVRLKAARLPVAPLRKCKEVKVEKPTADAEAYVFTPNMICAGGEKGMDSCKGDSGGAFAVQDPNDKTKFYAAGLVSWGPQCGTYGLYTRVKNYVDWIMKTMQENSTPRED

Rat MASP2 = molecular target: T7, Rat MASP2 (rat, UniProt Q9JJS8); experiment: ELISA; plate coated with rat MASP2 (1 ug/ml), serially diluted antibody, mouse anti-human IgG4 Fc HRP, OD450 (fit value printed for a flat curve)
T7 construct: purchased protein coated on the ELISA plate at 1 ug/ml
T7 sequence (Q9JJS8 20-685 limits assumed): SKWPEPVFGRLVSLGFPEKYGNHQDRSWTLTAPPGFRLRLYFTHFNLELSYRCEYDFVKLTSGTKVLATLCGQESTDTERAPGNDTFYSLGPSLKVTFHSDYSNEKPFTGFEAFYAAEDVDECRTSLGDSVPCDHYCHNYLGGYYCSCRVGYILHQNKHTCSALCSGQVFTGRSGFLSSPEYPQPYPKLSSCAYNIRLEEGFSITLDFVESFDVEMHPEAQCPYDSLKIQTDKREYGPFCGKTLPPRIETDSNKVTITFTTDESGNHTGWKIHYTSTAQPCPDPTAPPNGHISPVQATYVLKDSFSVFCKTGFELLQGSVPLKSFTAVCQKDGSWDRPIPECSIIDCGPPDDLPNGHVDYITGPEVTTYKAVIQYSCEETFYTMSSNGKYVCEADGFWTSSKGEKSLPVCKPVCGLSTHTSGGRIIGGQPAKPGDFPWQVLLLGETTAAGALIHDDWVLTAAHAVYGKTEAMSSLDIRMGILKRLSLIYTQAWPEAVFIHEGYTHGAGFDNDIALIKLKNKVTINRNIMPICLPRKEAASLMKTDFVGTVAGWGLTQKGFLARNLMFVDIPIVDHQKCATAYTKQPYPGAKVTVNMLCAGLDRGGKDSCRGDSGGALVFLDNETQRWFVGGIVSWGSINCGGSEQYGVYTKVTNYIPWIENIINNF

Mouse MASP2 = molecular target: T8, Mouse MASP2 (mouse, UniProt Q91WP0); experiment: ELISA; plate coated with mouse MASP2 (1 ug/ml), serially diluted antibody, mouse anti-human IgG4 Fc HRP, OD450 (fit value printed for a flat curve)
T8 construct: purchased protein coated on the ELISA plate at 1 ug/ml
T8 sequence (Q91WP0 20-685 limits assumed): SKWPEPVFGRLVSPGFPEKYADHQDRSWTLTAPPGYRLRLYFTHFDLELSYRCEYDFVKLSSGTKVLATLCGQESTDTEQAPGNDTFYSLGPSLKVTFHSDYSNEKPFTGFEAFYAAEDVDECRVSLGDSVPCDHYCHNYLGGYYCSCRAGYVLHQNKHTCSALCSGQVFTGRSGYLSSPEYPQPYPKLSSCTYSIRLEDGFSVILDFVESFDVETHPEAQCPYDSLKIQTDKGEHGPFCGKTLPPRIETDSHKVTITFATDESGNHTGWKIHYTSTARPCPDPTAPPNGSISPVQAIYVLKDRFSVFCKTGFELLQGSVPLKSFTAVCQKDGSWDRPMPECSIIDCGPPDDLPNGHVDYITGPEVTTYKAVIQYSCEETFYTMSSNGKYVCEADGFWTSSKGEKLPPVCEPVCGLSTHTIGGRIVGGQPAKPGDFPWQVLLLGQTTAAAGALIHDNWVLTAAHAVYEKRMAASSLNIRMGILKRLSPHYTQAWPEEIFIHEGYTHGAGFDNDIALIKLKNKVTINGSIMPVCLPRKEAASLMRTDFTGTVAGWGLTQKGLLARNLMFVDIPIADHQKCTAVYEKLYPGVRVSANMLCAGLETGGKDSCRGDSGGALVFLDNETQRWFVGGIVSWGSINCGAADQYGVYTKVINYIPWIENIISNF

[5] = molecular target: T4, human MASP-2 protein (recombinant, …); experiment: ELISA; plate coated with human MASP2, serially diluted antibody, anti-human IgG4 HRP, OD at 450nm; concentration axis printed as 'Antibody conc.(nM)'
[6] = molecular target: T3, Human FcRn (FCGRT&B2M) protein with His …; experiment: BLI (ForteBio), His-tagged human FcRn on Ni-NTA biosensor

B1: 129C10 HaLa (129C10-hu) (antibody, human IgG4)
VH: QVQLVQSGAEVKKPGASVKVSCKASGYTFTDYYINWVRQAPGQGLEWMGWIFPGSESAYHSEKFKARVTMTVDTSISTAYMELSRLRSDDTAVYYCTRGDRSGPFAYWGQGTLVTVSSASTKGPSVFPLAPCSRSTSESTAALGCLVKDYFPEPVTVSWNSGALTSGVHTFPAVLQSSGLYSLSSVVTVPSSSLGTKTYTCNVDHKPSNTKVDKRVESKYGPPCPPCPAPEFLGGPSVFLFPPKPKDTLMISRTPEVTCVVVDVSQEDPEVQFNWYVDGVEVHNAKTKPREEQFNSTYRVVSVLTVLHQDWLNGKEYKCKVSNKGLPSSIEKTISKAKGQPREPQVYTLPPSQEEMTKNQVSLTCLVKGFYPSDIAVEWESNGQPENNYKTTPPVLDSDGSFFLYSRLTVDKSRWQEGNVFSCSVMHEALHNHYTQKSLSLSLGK
VL: DVVMTQSPLSLPVTLGQPASISCKSSQSLLYSNGKTYLNWLQQRPGQSPRRLIYLVSKLDSGVPDRFSGSGSGTDFTLKISRVEAEDVGVYYCVQVTHFPFTFGQGTKLEIKRTVAAPSVFIFPPSDEQLKSGTASVVCLLNNFYPREAKVQWKVDNALQSGNSQESVTEQDSKDSTYSLSSTLTLSKADYEKHKVYACEVTHQGLSSPVTKSFNRGEC
notes: Humanized; also called 129C10-hu-WT; Hu129C10_HaLa-hIgG4
binding result (Recombinant Human MASP-1): no binding (tested: about 2 ug/ml) | binding result (Recombinant Human MASP-3): no binding (tested: about 2 ug/ml) | Kd [1]: 6.1 nM | koff [1]: 0.00317 s⁻¹ | kon [1]: 520000 M⁻¹ s⁻¹ | Kd [2]: < 0.001 nM | koff [2]: < 1e-07 s⁻¹ | kon [2]: 35300 M⁻¹ s⁻¹ | EC50 [3]: 0.0127 µg/mL | EC50 (Cyno MASP2): 0.0111 µg/mL | EC50 [4]: ~1.65 µg/mL | EC50 (Rat MASP2): 17.2 µg/mL | EC50 (Mouse MASP2): ~672 µg/mL | EC50 [5]: 0.0162 nM

B2: 129C10-hu-YTE (Hu129C10 hIgG4_YTE kappa) (antibody)
heavy: QVQLVQSGAEVKKPGASVKVSCKASGYTFTDYYINWVRQAPGQGLEWMGWIFPGSESAYHSEKFKARVTMTVDTSISTAYMELSRLRSDDTAVYYCTRGDRSGPFAYWGQGTLVTVSSASTKGPSVFPLAPCSRSTSESTAALGCLVKDYFPEPVTVSWNSGALTSGVHTFPAVLQSSGLYSLSSVVTVPSSSLGTKTYTCNVDHKPSNTKVDKRVESKYGPPCPPCPAPEFLGGPSVFLFPPKPKDTLYITREPEVTCVVVDVSQEDPEVQFNWYVDGVEVHNAKTKPREEQFNSTYRVVSVLTVLHQDWLNGKEYKCKVSNKGLPSSIEKTISKAKGQPREPQVYTLPPSQEEMTKNQVSLTCLVKGFYPSDIAVEWESNGQPENNYKTTPPVLDSDGSFFLYSRLTVDKSRWQEGNVFSCSVMHEALHNHYTQKSLSLSLGK
light: DVVMTQSPLSLPVTLGQPASISCKSSQSLLYSNGKTYLNWLQQRPGQSPRRLIYLVSKLDSGVPDRFSGSGSGTDFTLKISRVEAEDVGVYYCVQVTHFPFTFGQGTKLEIKRTVAAPSVFIFPPSDEQLKSGTASVVCLLNNFYPREAKVQWKVDNALQSGNSQESVTEQDSKDSTYSLSSTLTLSKADYEKHKVYACEVTHQGLSSPVTKSFNRGEC
notes: also called Hu129C10_HaLa-hIgG4 with amino acid substitutions M252Y/S254T/T256E [YTE]
fold increase of binding affinity against 129C10-hu [6]: 3 fold | Kd [1]: 1.88 nM | koff [1]: 0.00101 s⁻¹ | kon [1]: 536000 M⁻¹ s⁻¹
